Assay [1] has as its target T1, SARS-CoV-2 spike S2 subunit, recombinant (SARS-CoV-2, reference sequence, UniProt P0DTC2).
T1 construct: source: bought: Sino Biologicals, baculovirus-insect cells
Nature of the assay: ELISA. (In an ELISA, binding on a coated surface is turned into a signal by an enzyme label.)

The target in assay [2] is T2, SARS-CoV-2 RBD (amino acids 340-538) on MDCK-SIAT1 cells (SARS-CoV-2 (so in the source)).
T2 construct: also called MDCK-RBD; source: MDCK-SIAT1, stably transduced (lentiviral vector), on the cell surface
Briefly: flow cytometry on cells. The conditions noted are these: one partner purified. Background: In flow cytometry, cells or beads pass a laser one at a time.

Assay [3] addresses T3, SARS-CoV-2 NTD on MDCK-SIAT1 cells (SARS-CoV-2 (so in the source)).
T3 construct: also called MDCK-NTD
Briefly: flow cytometry on cells. The conditions noted are these: one partner purified.

The target in assay [4] is T4, SARS-CoV-2 spike receptor-binding domain, recombinant (SARS-CoV-2, reference sequence, UniProt P0DTC2).
T4 construct: also called RBD; source: bought: Sino Biologicals, baculovirus-insect cells
Nature of the assay: ELISA.

Consider 21 molecules from paper PMC8130932 (PLoS Pathogens, 2021).

Residue numbers refer to the chain shown, from its start.

B1: FG 7A (antibody, V domains shown)
VH: EVQLVESGGGVVQPGRSLRLSCAASGFTFSSYAMHWVRQAPGKGLEWVAVISYDGSNKYYADSVKGRFTISRDNSKNTLYLQMNSLRAEDTAVYYCARSHSGSYRASLDYWGQGTTVTVSS
VL: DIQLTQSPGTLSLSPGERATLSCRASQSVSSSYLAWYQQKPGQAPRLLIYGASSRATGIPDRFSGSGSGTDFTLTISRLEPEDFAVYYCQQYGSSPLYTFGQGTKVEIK
notes: source: HEK293T, transfected; culture supernatant or purified
On to B1, for which the OD450 in assay [1] is 1.05 OD450.

B2: FD 1D (antibody, V domains shown)
VH: B1 VH with S99A, H100G, R105L, A106N, S107W, L108F, Y110P, T116L
VL: EIVLTQSPATLSLSPGERATLSCRASQSVSSYLAWYQQKPGQAPRLLIYDASNRATGIPARFSGSGSGTDFTLTISSLEPEDFAVYYCQQRSNWPITFGQGTRLEIK
notes: as for B1
With B2, the binding result in assay [2] and in assay [3] was “no binding” in each case. Further, the OD450 in assay [1] was found to be 1.06 OD450.

B3: FJ 10B (antibody, V domains shown)
VH: QVQLVQSGAEVKKPGESLRISCKGSGYSFTSYWISWVRQMPGKGLEWMGRIDPSDSYTNYSPSFQGHVTISADKSISTAYLQWSSLKASDTAMYYCARLDPRYGPDYYGMDVWGQGTTVTVSS
VL: AIRMTQSPSSLSASVGDRVTITCRASQSISSYLNWYQQKPGKAPKLLIHAASSLQSGVPSRFSGSGSGTDFTLTMSSLQPEDFATYYCQQSYSTPLTFGGGTKVEIR
notes: as for B1
In the case of B3, the binding result in assay [2] is recorded as “binds”. In addition, the OD450 in assay [4] was determined as 1.22 OD450.

B4: FI 4A (antibody, V domains shown)
VH: EVQLVESGGGLVKPGGSLRLSCAASGFTFSRFSMNWVRQAPGKGLEWVSSISSSGSYIYFADSVKGRFTISRDNAKNSLYLQMNSLRAEDTAIYYCATYLFGDSHTYWGQGTLVTVSS
VL: QSVLTQPHSVSESPGKTVTISCTGSSGSIASNYVQWYQQRPGSAPTTVIYEDNQRPSGVPDRFSGSIDSSSNSASLTISGLKTEDEADYYCQSYDSSNLHWVFGGGTKLTVL
notes: as for B1
Turning to B4, the binding result in assay [2] is “binds”. In assay [4], the OD450 stood at 1.12 OD450.

B5: FI 3A (antibody, V domains shown)
VH: EVQLLESGGGLIQPGGSLRLSCAASGFTVSSNYMSWVRQAPGKGLEWVSVIYSGGSTYYADSVKGRFTISRDNSKNTLYLQMNSLRAEDTAVYYCARDHVRPGMNIWGQGTMVTVSS
VL: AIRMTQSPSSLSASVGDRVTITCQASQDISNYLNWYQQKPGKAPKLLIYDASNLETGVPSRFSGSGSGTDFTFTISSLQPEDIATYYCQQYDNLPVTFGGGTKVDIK
notes: as for B1
Regarding B5, the binding result in assay [2] is reported as “binds”. Also, the OD450 in assay [4] worked out at 1.12 OD450.

B6: FD 11C (antibody, V domains shown)
VH: EVQLLESGPGLVKPSETLSLTCTVSGGSISSSSYYWGWIRQPPGKGLEWIGSIYYSGSTYYNPSLKSRVTISVDTSKNQFSLKLSSVTAADTAVYYCAREYYYGSETKKYYYYYGMDVWGQGTTVTVSS
VL: not shown
notes: as for B1
B6: the binding result in assay [2] and in assay [3] was “no binding” throughout.

B7: EY 6A (antibody, V domains shown)
VH: EVQLVESGGGVVQPGRSLRLSCAASAFTFSSYDMHWVRQAPGKGLEWVAVISYDGSNKYYADSVKGRFTISRDNSKNTLYLQMNSLRAEDTAVYYCAKDGGKLWVYYFDYWGQGTLVTVSS
VL: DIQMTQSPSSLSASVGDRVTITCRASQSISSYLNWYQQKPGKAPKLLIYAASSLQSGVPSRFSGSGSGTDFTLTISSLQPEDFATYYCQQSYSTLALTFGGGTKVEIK
notes: as for B1
For B7, the binding result in assay [2] is reported as “binds”. Moreover, in assay [4], the OD450 is 1.18 OD450.

B8: FD 5D (antibody, V domains shown)
VH: EVQLVESGGGLVQPGGSLRLSCAASGFTFSSYSMNWVRQAPGKGLEWVSYISSSSSTIYYADPVKGRFTISRDNAKNSLYLQMNSLRAEDTAVYYCASPGGITAAGTSVLFGYYGMDVWGQGTMVTVSS
VL: not shown
notes: as for B1
B8: the binding result in assay [2] is “binds”. For the same molecule, the OD450 in assay [4] is 1.19 OD450.

B9: FI 1C (antibody, V domains shown)
VH: EVQLVESGGGLVKPGGSLRLSCAASGFTFSDYYMSWIRQAPGKGLEWVSYISSSGSTIYYADSVKGRFTISRDNAKNSLYLQMNSLRAEDTAVYYCARRSNRFLIAFDIWGQGTMVTVSS
VL: QSALTQPASVSGSPGQTITISCTGTSSDVGGYNYVSWYQQHPGKAPKLMIYEVSNRPSGVSNRFSGSKSGNTASLTISGLQAEDEADYYCSSYTSSSTLVVFGGGTKLTVP
notes: as for B1
As for B9, the binding result in assay [2] is on record as “binds”. Also, the OD450 in assay [4] is 1.22 OD450.

B10: FD 11A (antibody, V domains shown)
VH: EVQLVESGGGVVQPGRSLRLSCAASGFTFSSYGMHWVRQAPGKGLEWVAVIWYDGSNKYYADSVKGRFTISRDNSKNTLYLQMNSLRAEDTAVYYCAKGPDILTGYYNYYYYGMDVWGQGTMVTVSS
VL: QSVLTQPPSVSGAPGQRVTISCTGSSSNIGAGYDVHWYQQLPGTAPKLLIYGNSNRPSGVPDRFSGSKSGTSASLAITGLQAEDEADYYCQSYDSSLSGFYVVFGGGTKLTVL
notes: as for B1
For the molecule B10, in assay [2], the binding result is recorded as “binds”. For the same molecule, in assay [4], the OD450 was 1.17 OD450.

B11: FM 1A (antibody, V domains shown)
VH: EVQLLESGGGVVQPGRSLRLSCAASGFTFSSYGMHWVRQAPGKGLEWVAVIWYDGSNKYYADSVKGRFTISRDNSKNTLYLQMNSLRAEDTAVYYCAREGAVGATRGFDYWGQGTLVTVSS
VL: SYELTQPPSVSVAPGQTARITCGGNNIGSKSVHWYQQKPGQAPVLVVYDDSDRPSGIPERFSGSNSGNTATLTISRVEAGDEADYYCQVWDSSSDQGVFGGGTKLTVL
notes: as for B1
As for B11, the OD450 in assay [1] was found to be 0.88 OD450.

B12: FN 8C (antibody, V domains shown)
VH: QVQLVESGGGVVQPGRSLRLSCAASGFTFSSYGMHWVRQAPGKGLEWVAVISYDGSNKYYADTVKGRFTISRDNSKNTLYLQMNSLRAEDTAVYYCARERTYYDILTGYRHYYGMDVWGQGTTVTVSS
VL: B11 VL with Q96H, G97W
notes: as for B1
As to B12, the binding result in assay [2] and in assay [3] was “no binding” each time.

B13: FG 12C (antibody, V domains shown)
VH: EVQLVESGGGLVQPGRSLRLSCAASGFTFDDYAMHWVRQAPGKGLEWVSGISWNSGSIGYADSVKGRFTISRDNAKNSLYLQMNSLRAEDTALYYCAKDMRVHDYGDYYFDYWGQGTLVTVSS
VL: B11 VL with Q16K, V47I, D49Y, Q96H, G97P
notes: as for B1
In the case of B13, the binding result in assay [2] and in assay [3] was “no binding” each time.

B14: FD 5E (antibody, V domains shown)
VH: EVQLVESGGVVVQPGGSLRLSCAASGFTFDDYAMHWVRQAPGKGLEWVSLISWDGGSTYYADSVKGRFTISRDNSKNSLYLQMNSLRAEDTALYYCAKDSVRFRYYYGMDVWGQGTTVTVSS
VL: B2 VL with I96L, Q100P, R103K, L104V, E105D
notes: as for B1
B14: the binding result in assay [2] and in assay [3] was “no binding” throughout.

B15: EW 9B (antibody, V domains shown)
VH: EVQLVQSGAEVKKPGASVKVSCKASGYTFTSYYMHWVRQAPGQGLEWMGIINPSGGSTSYAQKFQGRVTMTRDTSTSTVYMELSSLRSEDTAVYYCAREDGVVPAANLMISLEDYYYYGMDVWGQGTTVTVSS
VL: B2 VL with I96L, Q100G, R103K, L104V, E105D
notes: as for B1
For the molecule B15, the binding result in assay [2] and in assay [3] was “no binding” each time.

B16: EZ 7A (antibody, V domains shown)
VH: EVQLVESGAEVKKPGESLKISCKGSGYSFTSYWIGWVRQMPGKGLEWMGIIYPGDSDTRYSPSFQGQVTISADKSISTAYLQWSSLKASDTAMYYCARGWVYRGFPYYGMDVWGQGTMVTVSS
VL: QSALTQPRSVSGSPGQSVTISCTGTSSDVGGYNYVSWYQQHPGKAPKLMIYDVSKRPSGVPDRFSGSKSGNTASLTISGLQAEDEADYYCCSYAGSYTLVFGGGTKLTVL
notes: as for B1
Consider B16, for which the binding result in assay [2] is on record as “binds”. Also, the OD450 in assay [4] was 1.12 OD450.

B17: FN 12A (antibody, V domains shown)
VH: QVQLVQSGAEVKKPGSSVKVSCKASGGTFSSYAISWVRQAPGQGLEWMGRIIPILGIANYAQKFQGRVTITADKSTSTAYMELSSLRSEDTAVYYCARSGCSSTSCPSNLYYYYYGMDVWGQGTTVTVSS
VL: QSVLTQPPSVSAAPGQKVTISCSGSSSNIGNNYVSWYQQLPGTAPKLLIYDNNKRPSGIPDRFSGSKSGTSATLGITGLQTGDEADYYCGTWDSSLSALVFGGGTKLTVL
notes: as for B1
As to B17, the figures for the binding result in assay [2] and in assay [3] were “binds” and “no binding”, respectively. In addition, in assay [4], the OD450 came out at 1.33 OD450.

B18: FD 11D (antibody, V domains shown)
VH: EVQLVESGGGVVQPGRSLRLSCAASGFTFSSYGMHWVRQAPGKGLEWVAVISYDGSNKYYADSVKGRFTISRDNSKNTLYLQMNSLRAEDTAVYYCAKEGAGSGWYRHHKPGYYFDYWGQGTLVTVSS
VL: not shown
notes: as for B1
B18: in assay [2], the binding result is recorded as “no binding”.

B19: FM 7B (antibody, V domains shown)
VH: EVQLVQSGAEVKKPGASVKVSCKASGYTFTSYAMHWVRQAPGQRLEWMGWINTGNGNTKYSQKFQGRVTITRDTSASTAYMELSSLRSEDTAVYYCARDPTYCSSTSCYPFSWFDPWGQGTLVTVSS
VL: NFMLTQPPSVSVAPGQTARITCGGNNIGSKSVHWYQQKPGQAPVLVVYDDSDRPSGIPERFSGSNSGNTATLTISRVEAGDEADYYCQVWDSTGDHSWVFGGGTKLTVL
notes: as for B1
For the molecule B19, in assay [2], the binding result is given as “binds”. Further, in assay [4], the OD450 amounted to 1.27 OD450.

B20: FD 7D (antibody, V domains shown)
VH: EVQLVESGAEVKKPGESLRISCKGSGYSFTSYWISWVRQMPGKGLEWMGRIDPSDSYTNYSPSFQGHVTISADKSISTAYLQWSSLKASDTAMYYCARHSDCSSTSCYFVDAFDIWGQGTMVTVSS
VL: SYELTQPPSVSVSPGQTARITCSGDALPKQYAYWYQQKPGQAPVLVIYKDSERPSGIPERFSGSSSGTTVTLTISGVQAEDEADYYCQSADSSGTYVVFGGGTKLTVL
notes: as for B1
As to B20, the binding result in assay [2] and in assay [3] was “no binding” throughout.

B21: FD 7C (antibody, V domains shown)
VH: QLQLQESGPGLVKPSETLSLTCTVSGGSISSYYWSWIRQPPGKGLEWIGYIYYSGSTNYNPSLKSRVTISVDTSKNQFSLKLSSVTAADTAVYYCARDYRFGELFGRFAWFDPWGQGTLVTVSS
VL: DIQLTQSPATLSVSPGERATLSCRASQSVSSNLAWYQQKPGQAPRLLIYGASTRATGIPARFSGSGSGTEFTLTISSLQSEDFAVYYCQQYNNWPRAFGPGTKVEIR
notes: as for B1
Take B21: the values for the binding result in assay [2] and in assay [3] were “no binding” and “binds”, respectively.
